In patent US20230357415A1 one finds absolute IC50 (Abs IC50), inhibition of IL-5-dependent proliferation of TF-1/IL-5Rα cells data, which are given here for 1 substance.

This assay has as its target IL-5Rα expressed on cells (TF-1/IL-5Rα cells; human eosinophils) (human) (UniProt Q01344). Briefly: cell-based or functional assay.

Chain of IL-5Rα expressed on cells (TF-1/IL-5Rα cells; human eosinophils) (human) (Q01344 21-420): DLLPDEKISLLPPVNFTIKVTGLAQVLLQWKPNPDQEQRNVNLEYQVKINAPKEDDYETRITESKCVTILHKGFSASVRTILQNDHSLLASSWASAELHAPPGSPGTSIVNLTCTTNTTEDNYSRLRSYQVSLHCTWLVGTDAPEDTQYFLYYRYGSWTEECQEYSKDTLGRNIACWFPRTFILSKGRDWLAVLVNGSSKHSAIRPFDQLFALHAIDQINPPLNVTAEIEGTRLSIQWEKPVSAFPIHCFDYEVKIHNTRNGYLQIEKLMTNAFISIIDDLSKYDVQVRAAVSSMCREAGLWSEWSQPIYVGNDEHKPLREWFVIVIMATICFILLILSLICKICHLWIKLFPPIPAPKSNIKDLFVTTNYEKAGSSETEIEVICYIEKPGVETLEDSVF

The substance benralizumab analogue (antibody) registered an absolute IC50 (Abs IC50), inhibition of IL-5-dependent proliferation of TF-1/IL-5Rα cells of 1.99 nM.
